For orientation: EC50 means the concentration needed to bring the measured effect to its halfway point.

Here are results for 6 molecules from US10363320B2, “Conjugate comprising oxyntomodulin and an immunoglobulin fragment, and use thereof” (HANMI SCIENCE CO., LTD, priority 2011, dated 2019).

For data set [1] the following is noted: in vivo; cited from earlier work.
Another data set concerns the target T1, human glucagon receptor (Homo sapiens, UniProt P47871).
T1 construct: host or cells: CHO DG44
Kind of data set: cAMP response in CHO cell line expressing human glucagon receptor (CHO/GCGR). Conditions: Table 3, Fc conjugates, GLP-1, glucagon, 37° C. for 1 hour. It is filed as cell-based. The protocol:
The PCR product was cloned into the known animal cell expression vector x0GC/dhfr to prepare a recombinant vector x0GC/GCGR.
CHO DG44 cell line cultured in DMEM/F12 (10% FBS) medium was transfected with the recombinant vector x0GC/GCGR using LIPOFECTAMINE®, and cultured in a selection medium containing 1 mg/mL G418 and 10 nM methotraxate.
(§1) The cultured cells were washed with KRB buffer and suspended in 40 ml of KRB buffer containing 1 mM IBMX, and left at room temperature for 5 minutes. […] Then, 20 mL of cell lysis buffer was added for cell lysis, and the cell lysates were applied to a cAMP assay kit (Molecular Device, USA) to measure cAMP concentrations. EC50 values were calculated therefrom, and compared to each other.
(§2) Each of the cultured transformants was washed with KRB buffer and suspended in 40 ml of KRB buffer containing 1 mM IBMX, and left at room temperature for 5 minutes. […] Then, 20 ml of cell lysis buffer was added for cell lysis, and the cell lysates were applied to a cAMP assay kit (Molecular Device, USA) to measure cAMP concentrations using a Victor (PERKIN ELMER®, USA). EC50 values were calculated therefrom, and compared to each other (Table 3).

The target in another data set is T2, human GLP-1 receptor (Homo sapiens, UniProt P43220).
T2 construct: host or cells: CHO DG44
T2 sequence (P43220 24-463): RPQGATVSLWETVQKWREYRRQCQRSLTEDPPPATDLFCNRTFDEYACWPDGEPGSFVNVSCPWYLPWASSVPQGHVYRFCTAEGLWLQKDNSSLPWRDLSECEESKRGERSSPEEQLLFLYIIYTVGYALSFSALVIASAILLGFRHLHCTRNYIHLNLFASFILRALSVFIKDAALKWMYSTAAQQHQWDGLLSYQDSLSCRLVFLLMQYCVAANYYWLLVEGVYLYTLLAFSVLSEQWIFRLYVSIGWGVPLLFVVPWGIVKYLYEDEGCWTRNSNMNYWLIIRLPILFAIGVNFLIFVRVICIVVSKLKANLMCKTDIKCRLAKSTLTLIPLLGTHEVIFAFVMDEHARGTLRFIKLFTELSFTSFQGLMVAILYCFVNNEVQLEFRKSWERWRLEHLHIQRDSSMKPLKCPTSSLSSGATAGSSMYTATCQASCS
Kind of data set: cAMP response in CHO cell line expressing human GLP-1 receptor (CHO/GLP-1R). It is filed as cell-based. The following applies: Table 3, Fc conjugates, GLP-1, glucagon, 37° C. for 1 hour. The protocol: The PCR product was cloned into the known animal cell expression vector x0GC/dhfr to prepare a recombinant vector x0GC/GLP1R.
CHO DG44 cell line cultured in DMEM/F12 (10% FBS) medium was transfected with the recombinant vector x0GC/GLP1R using LIPOFECTAMINE® (INVITROGEN®, USA), and cultured in a selection medium containing 1 mg/mL G418 and 10 nM methotraxate.
as §1, §2

The conditions of data set [2]: taken for 1 year; cited from earlier work.

T1 sequence (P47871 26-477): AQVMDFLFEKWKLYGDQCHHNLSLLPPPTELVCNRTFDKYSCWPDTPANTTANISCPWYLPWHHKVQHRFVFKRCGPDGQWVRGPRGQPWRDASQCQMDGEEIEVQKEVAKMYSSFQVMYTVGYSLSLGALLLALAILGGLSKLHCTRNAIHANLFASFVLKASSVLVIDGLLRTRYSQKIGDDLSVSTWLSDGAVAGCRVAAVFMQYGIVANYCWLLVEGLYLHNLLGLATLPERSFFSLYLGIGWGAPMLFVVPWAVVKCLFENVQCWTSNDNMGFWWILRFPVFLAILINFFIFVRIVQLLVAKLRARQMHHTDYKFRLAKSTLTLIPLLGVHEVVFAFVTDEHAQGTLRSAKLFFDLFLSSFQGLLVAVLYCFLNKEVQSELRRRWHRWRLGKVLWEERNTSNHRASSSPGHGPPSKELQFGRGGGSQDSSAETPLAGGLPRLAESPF

Turning to `Cc1c(C(=O)NN2CCCCC2)nn(-c2ccc(Cl)cc2Cl)c1-c1ccc(Cl)cc1` [Rimonabant], the side-effect result in data set [1] is reported as “side-effect of central nerve disorder”.

As to “SEQ ID NO. 34 - Fc conjugates: conjugate of oxyntomodulin derivative (SEQ ID NO. 34), cysteine 30, MAL-10K-ALD PEG and immunoglobulin Fc (YXQGTFTSDYSKYLDEKRAKEFVQWLMNTC; conjugate chemistry not built; chains of the parent or of the whole protein)”, the results for the EC50 with human glucagon receptor and with human GLP-1 receptor were 8 nM and 168 nM, respectively.

As to “SEQ ID NO. 33 - Fc conjugates: conjugate of oxyntomodulin derivative (SEQ ID NO. 33), cysteine 30, MAL-10K-ALD PEG and immunoglobulin Fc (HXQGTFTSDYAKYLDEKRAKEFVQWLMNTC; conjugate chemistry not built; chains of the parent or of the whole protein)”, the EC50 with human glucagon receptor was found to be 85.9 nM; with human GLP-1 receptor it was 11.7 nM.

In the case of `CCCCCCCCCCC[C@@H](C[C@@H]1OC(=O)[C@H]1CCCCCC)OC(=O)[C@H](CC(C)C)NC=O` [Orlistat], in data set [2], the weight loss is 4 kg.

With “SEQ ID NO. 23 - Fc conjugates: conjugate of oxyntomodulin derivative (SEQ ID NO. 23), cysteine 24, MAL-10K-ALD PEG and immunoglobulin Fc (HXQGTFTSDYSKYLDEKRAKEFVCWLMNT; not fully specified; conjugate chemistry not built; chains of the parent or of the whole protein)”, the EC50 with human glucagon receptor turned out to be 15.8 nM; in the data set with human GLP-1 receptor, 5.4 nM.

Take `CC(C)CC(N(C)C)C1(c2ccc(Cl)cc2)CCC1` (stereo not drawn) [Sibutramine]: the side-effect result in data set [1] is listed as “cardiovascular side-effects”.
